B1: ZIP7: zinc transporter protein 7, overexpressed from a transgene; SEQ ID NO:4 (Drosophila), SEQ ID NO:5 (human) (protein, UniProt Q92504 1-469, looked up)
Zinc transporter SLC39A7: MARGLGAPHWVAVGLLTWATLGLLVAGLGGHDDLHDDLQEDFHGHSHRHSHEDFHHGHSHAHGHGHTHESIWHGHTHDHDHGHSHEDLHHGHSHGYSHESLYHRGHGHDHEHSHGGYGESGAPGIKQDLDAVTLWAYALGATVLISAAPFFVLFLIPVESNSPRHRSLLQILLSFASGGLLGDAFLHLIPHALEPHSHHTLEQPGHGHSHSGQGPILSVGLWVLSGIVAFLVVEKFVRHVKGGHGHSHGHGHAHSHTRGSHGHGRQERSTKEKQSSEEEEKETRGVQKRRGGSTVPKDGPVRPQNAEEEKRGLDLRVSGYLNLAADLAHNFTDGLAIGASFRGGRGLGILTTMTVLLHEVPHEVGDFAILVQSGCSKKQAMRLQLLTAVGALAGTACALLTEGGAVGSEIAGGAGPGWVLPFTAGGFIYVATVSVLPELLREASPLQSLLEVLGLLGGVIMMVLIAHLE
B2: CatsupV5: V5-tagged wild type Catsup, the Drosophila homolog of ZIP7, expressed under Gal4/UAS control (protein, UniProt Q9V3A4 1-449, looked up)
Protein catecholamines up: MAKQVADYQCSKLQLYQKLALVVILGAVLFSLPALCAGQGNPSFKYSREANENFDPQKAPRAEHHHHHDHDHDHGHHHHGHDHDHDHDHGHDHGHHHHGHDHDHDHDHGHHHHGHDERHTKAKPDLDMSTIWLHSIGSTLLISAAPFVLLYIIPLDNSEAMKPRLKVLLAFASGGLLGDAFLHLIPHATHPHSHGEHGHDHGHDHHHHHDGEEHEHGHSHDMSIGLWVLGGIIAFLSVEKLVRILKGGHGGHGHSHGAPKPKPVPAKKKSSDKEDSGDGDKPAKPAKIKSKKPEAEPEGEVEISGYLNLAADFAHNFTDGLAIGASYLAGNSIGIVTTITILLHEVPHEIGDFAILIKSGCSRRKAMLLQLVTALGALAGTALALLGAGGGDGSAPWVLPFTAGGFIYIATVSVLPELLEESTKLKQSLKEIFALLTGVALMIVIAKFE
modifications: V5 tag
notes: V5-tagged wild type Catsup, the Drosophila homolog of ZIP7, expressed under Gal4/UAS control

Assays:
Vap33 = assay: Neurodegeneration due to expression of Vap33 in flies; assay type: in vivo; details: ZIP7 overexpression
Source text: FIG. 9. ZIP7 overexpression suppresses neurodegeneration due to expression of Vap33.
(§1) Overexpression of ZIP7 may mitigate ER stress and neuronal cell death in protein aggregation diseases (FIG. 7). We screened aggregate prone proteins for ZIP7 rescue (FIG. 8). ZIP7 overexpression suppressed neurodegeneration due to expression of Vap33 (FIG. 9) and amyloid β42 (FIG. 10).

[1] = tested on: ubiquitinated proteins / proteasome; assay: Ubiquitinated protein levels (FK2/DNA ratio) in egg chambers with and without MG132; assay type: in vivo, Drosophila
Description: FIGS. 12A-12C. Overexpressing ZIP7 decreases ubiquitinated protein levels. (FIG. 12A) Egg chambers with and without ZIP7 overexpression (OE) were incubated with media for 5 hours. (FIG. 12B) Egg chambers with and without ZIP7 overexpression (OE) were treated with 10 μM MG132 proteasome inhibitor for 5 hours. (FIG. 12C) Comparison of FK2/DNA ratio egg for chambers incubated with media or 10 μM MG132 proteasome inhibitor for 5 hours with or without ZIP7 overexpression.
Egg chambers with and without ZIP7 overexpression (OE) were incubated with media in the presence or absence of the MG132 proteasome inhibitor (10 μM) for 5 hours (FIGS. 12A and 12B). Overexpressing ZIP7 decreased ubiquitinated protein levels and the FK2/DNA ratio (FIG. 12C).

amyloid β42 = assay: Neurodegeneration due to expression of amyloid β42 in flies; assay type: in vivo; details: ZIP7 overexpression
Source text: FIG. 10. ZIP7 overexpression suppresses neurodegeneration due to expression of amyloid β42.
as §1

photoreceptor cells = assay: Rh1G69D-induced photoreceptor cell death (rough eye) in flies; assay type: in vivo; details: flies expressing Rh1G69D, ZIP7 overexpression
Source text: FIGS. 6A-6B. ZIP7 prevents Rh1G69D-induced photoreceptor cell death, which causes a rough eye. (FIG. 6A) Percentage of flies having the Rh1^G69D genotype that develop rough eye in presence and absence of ZIP7 expression. (FIG. 6B) Comparison of eye morphology of flies having the Rh1^G69D genotype in presence and absence of ZIP7 expression.
ZIP7 overexpression prevented photoreceptor cell death in the eyes of flies expressing mutant forms of rhodopsin.

[2] = tested on: follicle cells / border cells; assay: ER stress markers (Xbp1::EGFP, PDI) in cells lacking Catsup; assay type: in vivo, Drosophila; details: mosaic clones expressing CatsupRNAi
Source text: To test if Catsup knockdown induces the UPR in follicle cells, we compared expression of the ER stress marker Xbp1::EGFP^59 in mosaic border cell clusters composed of heterozygous Catsup^+/− and homozygous Catsup^−/− mutant cells. We found high levels of Xbp1 in Catsup^−/− but not Catsup^+/− border cells (FIG. 4A-A″). […] Accumulation of XBP1 and PDI are indicative of induction of an adaptive UPR^60. This effect was rescued by co-expression of CatsupV5 (FIG. 4C-C″).
(§2) Catsup mutant fly was generated by ethyl methanesulfonate (EMS) mutagen^37. The mutation results in glycine(G) to aspartic acid(D) replacement at amino acid 178. The FLP/FRT system was used to generate the Catsup^G178D homozygous mutant clones by combining FRT40A-Catsup^G178D with hsFLP12,yw;ubi:GFPnls, FRT40A or hsFLP12,yw;ubi:RFPnls, FRT40A/(CyO). Catsup::GFP expression pattern visualized by the line from VDRC 318542 in the fTRG stocks library. The UAS-CatsupRNAi transgenic line is from VDRC 100095 P{KK103630}VIE-260B. Wild type rescue w[*]; sna[Sco]/CyO; P{w[+mCJ=UAS-Catsup. V5}6 Bloomington 63229. […]

[3] = tested on: border cells expressing Rh1^G69D; assay: ER stress (Xbp1::EGFP) and migration of border cells expressing misfolded rhodopsin Rh1^G69D; assay type: in vivo, Drosophila; details: overexpression
Source text: To test whether ER stress impairs border cell migration, we expressed a misfolded rhodopsin protein Rh1^G69D, known to induce ER stress^61 As expected, Rh1^G69D induced Xbp1 expression in border cells (FIG. 4D insert). […] Since loss of Catsup caused ER stress, we wondered if Catsup over-expression might suppress ER stress.
as §2, with “63229. Additional transgenic Drosophila stocks used: UAS-wRNAi/Cyo is a lab stock, UAS-PleRNAi Bloomington 25796 y[1] v[1]; P{y[+t7.7] v[+t1.8]=TRiP.JF01813}attP2, UAS-Ple is Bloomington 37539 w[*]; P{w[+mC]=UAS-ple.T}331f2, O-fucosyltransferasel Bloomington 9376 P{UAS-O-fut.}]1.1, UAS-Notch.Intracellular.Domain on third chromosome was a gift from Artavanis-Tsakonas lab^71.” for “63229.”

border cells = assay: Border cell migration in stage 10 egg chambers expressing Catsup RNAi (rescue by co-expressed transgenes); assay type: in vivo, Drosophila; details: co-expressed with Catsup RNAi in border cells
Source text: Border cell clusters are composed of 4-6 migratory cells that surround and carry two non-migratory polar cells. Expression of a Catsup RNAi line in outer, migratory border cells using fruitlessGal4^51 inhibited migration (FIG. 2A). The defect was rescued by co-expression of UAS-CatsupV5 (FIG. 2B). Reduction of Catsup::GFP confirmed the effectiveness of the RNAi (FIGS. 2C, C′ and 2D, D′). Border cell migration was also impaired when Catsup RNAi was driven by c306Gal4 (FIG. 2E), which is expressed in both polar and migratory cells.
ZIP7 resides in the ER membrane and transports Zn^2+ from the ER to the cytosol^64. To test whether the Zn^2+ transporter activity of Catsup was important for border cell migration, we introduced point mutations, H315A and H344A, which replace histidine residues that are required for Zn^2+ transport and are conserved between Catsup, ZIP7 and a more distant family member from Arabidopsis IRT1. […] We generated transgenic flies expressing the mutants under Gal4/UAS control and included a V5 tag so that we could monitor protein abundance and localization. We then co-expressed each of these RNAi-resistant transgenes with CatsupRNAi and evaluated protein expression and border cell migration (FIGS. 5B-5E). […] All the proteins were stably expressed and correctly localized to the ER (FIGS. 5B-5E), therefore the lack of rescue was likely a consequence of impaired transporter activity rather than impaired expression, localization, or another function. […] From these experiments, we conclude that Zn^2+ transport is an essential function of Catsup in promoting ERAD.
Catsup mutant fly was generated by ethyl methanesulfonate (EMS) mutagen^37. The mutation results in glycine(G) to aspartic acid(D) replacement at amino acid 178. The FLP/FRT system was used to generate the Catsup^G178D homozygous mutant clones by combining FRT40A-Catsup^G178D with hsFLP12,yw;ubi:GFPnls, FRT40A or hsFLP12,yw;ubi:RFPnls, FRT40A/(CyO). Catsup::GFP expression pattern visualized by the line from VDRC 318542 in the fTRG stocks library. The UAS-CatsupRNAi transgenic line is from VDRC 100095 P{KK103630}VIE-260B. Wild type rescue w[*]; sna[Sco]/CyO; P{w[+mCJ=UAS-Catsup. V5}6 Bloomington 63229. Additional transgenic Drosophila stocks used: UAS-wRNAi/Cyo is a lab stock, UAS-PleRNAi Bloomington 25796 y[1] v[1]; P{y[+t7.7] v[+t1.8]=TRiP.JF01813}attP2, UAS-Ple is Bloomington 37539 w[*]; P{w[+mC]=UAS-ple.T}331f2, O-fucosyltransferasel Bloomington 9376 P{UAS-O-fut.}]1.1, UAS-Notch.Intracellular.Domain on third chromosome was a gift from Artavanis-Tsakonas lab^71. The ER stress marker UAS-Xbp1-EGFP.HG Bloomington 60731 w[*]; P{w[+mC]=UAS-Xbp1.EGFP.HG}3, UAS-HSC70-3 Bloomington 5843 w[126]; P{w[+mC]=UAS-Hsc70-3. WT}B. Catsup point mutations were cloned into vector pUASt-attb with forward primer ctctgaatagggaattggg[…] (SEQ ID NO:1) and reverse primer ccgcagatctgttaacgtca[…] (SEQ ID NO:2). The vector was injected to attp2 flies y1 w67c23; P{CaryP}attP2 by BestGene Inc.
When generating UAS-Catsup-point-mutations, we designed the construct so it cannot be targeted by the CatsupRNAi sequences by substituting redundant codons for the same amino acids within the region targeted by the RNAi. The RNAi resistant sequence is below with nucleic acid substitutions in lower case:
Point mutations were designed by changing codons at the following site CatsupH183A (CAC to GCC), CatsupH187A (CAT to GCT), CatsupH315A (CAT to GCT), CatsupH344A ([…]). […]

[4] = tested on: misfolded rhodopsin protein Rh1^G69D; assay: Rh1^G69D protein abundance in cells over-expressing Catsup (ERAD); assay type: in vivo, Drosophila; details: border cells, overexpression
Description: The UPR reinstates ER homeostasis by upregulating the protein-folding capacity of the ER and increasing its protein-degradation capacity^62. During ERAD, misfolded proteins are extruded from the ER, ubiquitinated, and degraded by the proteasome^60. To test whether Catsup overexpression might enhance ERAD, we examined Rh1^G69D protein abundance in cells over-expressing Catsup.
Female flies were fattened with yeast for 2 days at 29° C. Egg chambers were dissected from ovaries of female flies in Schneider's medium with 10% FBS (pH=6.85-6.95) as described previously^72. Freshly dissected egg chambers were fixed in 4% paraformaldehyde and then incubated overnight in 1×PBS with 0.4% triton and the following primary antibodies: mouse anti-PDI (1:200) (ADI-SPA-891-D Enzo Life Sciences, Inc.), chicken anti-GFP (1:200) (ab13970 Abcam plc.), Ple (anti-TH) antibody (a gift from the Craig Montell lab), mouse anti-Notch intracellular domain (1:100) C17.9C6 DSHB, rat Ecadherin antibody DCAD2 (1:50) DSHB, V5 Tag Monoclonal Antibody-Alexa Fluor 555 (2F11F7) Invitrogen, mouse anti-dEGFR (1:2000) E2906 Sigma Aldrich. O-fut1 antibody was used to confirm O-fut1 overexpression, and was a gift from Kenneth D. Irvine lab 73. Secondary antibodies were incubated for 2 hours, together with Hoechst stain for nuclei, and phalloidin stain for F-actin. […]

[5] = egg chambers, media with or without 10 μM MG132, 5 hours

misfolded rhodopsin protein Rh1^G69D, sequence (P06002 whole entry G69D): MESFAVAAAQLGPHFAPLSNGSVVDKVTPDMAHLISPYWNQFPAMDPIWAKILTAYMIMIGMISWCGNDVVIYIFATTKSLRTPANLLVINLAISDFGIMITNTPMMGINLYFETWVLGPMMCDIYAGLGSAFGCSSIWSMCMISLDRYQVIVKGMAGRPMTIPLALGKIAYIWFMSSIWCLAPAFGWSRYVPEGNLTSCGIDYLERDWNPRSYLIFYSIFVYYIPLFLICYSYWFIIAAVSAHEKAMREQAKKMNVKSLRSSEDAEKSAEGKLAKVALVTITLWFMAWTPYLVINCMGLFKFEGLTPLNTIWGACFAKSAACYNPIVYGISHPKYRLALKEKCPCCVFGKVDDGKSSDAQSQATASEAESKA

Molecule | neurodegeneration due to expression of Vap33 (Vap33) | FK2/DNA ratio [1, 5] | ubiquitinated protein levels [1, 5] | activity of the proteasome ([1]; even in the presence of a proteasome inhibitor) | neurodegeneration due to expression of amyloid β42 (amyloid β42) | photoreceptor cell death (rough eye) (photoreceptor cells) | rescue of ER stress (Xbp1 and PDI accumulation) [2] | Rh1^G69D-induced Xbp1 expression [3] | border cell migration blocked by Rh1^G69D [3] | rescue of border cell migration defect (border cells) | Rh1^G69D protein abundance [4]
B1 | suppressed | decreased | decreased | enhances | suppressed | prevented | – | – | – | – | –
B2 | – | – | – | – | – | – | rescued | rescued | rescued | rescued | reduced Rh1^G69D protein to an undetectable level
